B1: BAR/IMD domain-containing adapter protein 2 (Homo sapiens), Q9UQB8-4 (parent)
chain: MSLSRSEEMHRLTENVYKTIMEQFNPSLRNFIAMGKNYEKALAGVTYAAKGYFDALVKMGELASESQGSKELGDVLFQMAEVHRQIQNQLEEMLKSFHNELLTQLEQKVELDSRYLSAALKKYQTEQRSKGDALDKCQAELKKLRKKSQGSKNPQKYSDKELQYIDAISNKQGELENYVSDGYKTALTEERRRFCFLVEKQCAVAKNSAAYHSKGKELLAQKLPLWQQACADPSKIPERAVQLMQQVASNGATLPSALSASKSNLVISDPIPGAKPLPVPPELAPFVGRMSAQESTPIMNGVTGPDGEDYSPWADRKAAQPKSLSPPQSQSKLSDSYSNTLPVRKSVTPKNSYATTENKTLPRSSSMAAGLERNGRMRVKAIFSHAAGDNSTLLSFKEGDLITLLVPEARDGWHYGESEKTKMRGWFPFSYTRVLDSDGSDRLHMSLQQGKSSSTGNLLDKDDLAIPPPDYGAASRAFPAQTASGFKQRPYSVAVPAFSQGLDDYGARSMSSGSGTLVSTV

Variants of: B1
Settings: with vasp_human VASP

Variant | effect of a mutation on the interaction
W413G | disrupting interaction
